Test results as given in the DeepSol protein solubility set.

test: soluble on expression in E. coli; label from the status in PepcDB or PDB records

**Q.** Which “soluble on expression in E. coli” value does the source give for “MSLNEKEINYEEVMAKIDPENGIQVEIPRGANTDDIANILREHGVIKYPFWFKFVSKFNGYDGRYKSGKHIVNKDLKYKEIMEILCSNPVTTTVTIIEGKNTDQIADILSEKKVIDKEAFLEACNTEKFDYEFLKDIPENPQRENKLEGYLFPDTYFFDPKAGERAIIEKFLDNFDAKFKPEFYERAKELNMTVDEVIILASIIERETALPEERPIVSSVFHNRLKSSDPNLKKLESCATVQYVLYKTQGKMKEKLSDEDTKIDHPYNTYLYEGLPPGPICCPGLASIEAALYPDEESEYLYFVAKGDGSHEFSRTLAEHLEAVKKYQSNEGHHHHHH” here?
**A.** The value was “soluble”.

**Q.** Which “soluble on expression in E. coli” value does the source give for “MSLNEPVMNKKHFADNNFEEFQRIIRAKLENFKDRIELIEELLSKYHPTRLKEYTKDGIIYSKQCEFYNFLVGMNEAPFICNRKDLYLKEKMHGGVKEVYFANKHGKILNDDLSEKYFSAIEISEYAPKSQSDLFDKINALDSEFIFMHAYSPKNSQVLKDKLAFTSRRIIISGGSKEQGMTLGCLSELVGNGDITLGSYGNSLVLFADSFEKMKQSVKECVSSLNAKGFLANAATFSMENYFFAKHCSFITLPFIFDVTSNNFADFIAMRAMSFDGKEDNNAWGNSVMTLKSEINSPFYLNFHMPTDEGHHHHHH” here?
**A.** Its value is “not soluble”.

**Q.** With “MSLNGIGSYEYCGRRISMQDSILVGNNFFGDASSLFGIFDGHGGDYGSCFISKEIQKSLEKLRGRALTKEVFENEIISAIQNINTLMEQNNMTDGATSVIVASTKTHYLIANIGDSRAIIIRRTETSPIPMKDIDDETQQTLRPKSPSKLVLPKKTLKGKLGWSGAGSSKTTNQIEVNFDYIGGGRIEVEALTHDHKPSYQEDRQRIRESGNYISDQEKVNGYISVTRAIGDVKCKAFVSCIPEFSEVARRSSDCFVICACDGVWDVFSNEEIGNLVMANEQMNCTELAKLIVDIAYCRLSSDNISCIVFNCQDSEGHHHHHH” as the sequence, how does the “soluble on expression in E. coli” value read?
**A.** The value was “soluble”.

**Q.** Which “soluble on expression in E. coli” value does the source give for “MSLNGSSIIEFEDMTWSQQVEDSKKPVVVMFYSPACPYCKAMEPYFEEYAKEYGSSAVFGRINIATNPWTAEKYGVQGTPTFKFFCHGRPVWEQVGQIYPSILKNAVRDMLQHGEECIRKSTPVGQDITGYVEGHHHHHH” here?
**A.** The value was “soluble”.

**Q.** For “MSLNIAKIVREAREQSRLTTLDFATGIFDEFIQLHGDRSFRDDGAVVGGIGWLGDQAVTVVGIQKGKSLQDNLKRNFGQPHPEGYRKALRLMKQAEKFGRPVVTFINTAGAYPGVGAEERGQGEAIARNLMEMSDLKVPIIAIIIGEGGSGGALALAVADRVWMLENSIYAILSPEGFASILWKDGTRAMEAAELMKITSHELLEMDVVDKVISEVGLSSKELIKSVKKELQTELARLSQKPLEELLEERYQRFRKYEGHHHHHH”, which “soluble on expression in E. coli” value is on record?
**A.** Its value is “soluble”.

**Q.** With “MSLNIETKKVAVEEISAAIANAQTLVVAEYRGISVSSMTELRANARKEGVYLRVLKNTLARRAVQGTSFAELADQMVGPLVYAASEDAVAAAKVLHQFAKKDDKIVVKAGSYNGEVMNAAQVAELASIPSREELLSKLLFVMQAPVSGFARGLAALAEKKAGEEAA” as the sequence, how does the “soluble on expression in E. coli” value read?
**A.** The value was “not soluble”.

**Q.** For “MSLNIKDEHIDSVCSLLDQLVGNVSFKNLFTGYGLFHKEETMFAIWQNKKLYLRGEGVLAIQLTKLGCEPFTTNELNKRFVLSQYYALSDQILRSNRLCRKLIILSIKQILEQKLECTLRKLNRLKDLPNLTIKHERALIKVGITNVAMLREIGAENALVELKKSGSGATLDFYWKLVCALQNKNSQMLSQAEKERLLKKLNEVWRKNGLKGYRKLDDEEGHHHHHH”, which “soluble on expression in E. coli” value is on record?
**A.** The value was “soluble”.

**Q.** Which “soluble on expression in E. coli” value does the source give for “MSLNIKKAAELSGIKTDNIRYYERIGLIPKITRTESGIRNFTEANIRTLKFVKHMRDAGVQVEPLTRYMALVNEGNPETKEERIEILKNQVEQLRTEIIEKQSALDYLTFKIENYDEVMLPNEINLNQSSKETIKEGHHHHHH” here?
**A.** Its value is “soluble”.

**Q.** For “MSLNIVTLISWDFKRNNESFQRAIINGYDYWSRILDDHGVEKYVILLTCNRVELYYRGDPFDVQEKGYNIISDDMAINHLFHVAAGLDSMSIGENEVLKQVKQAYEKSSSMGKSDKFLSLIFQRAISVGKLVRSKTGIGKGKVSIPSIVYDIVRKNGGNKILLVGNGMLASEIAPYFSYPQYKVTVAGRNIDHVRAFAEKYEYEYVLINDIDSLIKNNDVIITATSSKTPIVEERSLMPGKLFIDLGNPPNIERGNNVITLDEIYEISKKNEMLREEKINQAEILIENEMKATMNKIKDLMIDDIFSQFYRFASVVQTMEIQKFRKMHPEVNENDLEALAHSIINKILNVPVTTLKAVSRSQGNSDFNRLFESFSSNFNDIVSAALQSYEGLRDTQSLRDRTRQLLQKSEGHHHHHH”, which “soluble on expression in E. coli” value is on record?
**A.** The value was “soluble”.

**Q.** Which “soluble on expression in E. coli” value does the source give for “MSLNLNLIFKEQTLKFNKEEQETYLFLQQHNSDWANIFKEMILQGRDKVTQRLVTSMHRENLVKARTQSKKILSRDLIMLDISTTHILEIQFPQAKQTLYAPITGEHAFDRIDVEGPFYIKDDITNTITRVHHPNEILECILIEAPDLKNAASDQFQQDLINSATNMTFAISYQALSMQHDSAPLFNIIENSEDSYLRSEQAVIEGHPLHPGAKLRKGLNALQTFLYSSEFNQPIKLKIVLIHSKLSRTMSLSKDYDTTVHQLFPDLIKQLENEFTPKFNFNDYHIMIVHPWQLDDVLHSDYQAEVDKELIIEAKHTLDYYAGLSFRTLVPKYPAMSPHIKLSTNVHITGEIRTLSEQTTHNGPLMTRILNDILEKDVIFKSYASTIIDEVAGIHFYNEQDEADYQTERSEQLGTLFRKNIYQMIPQEVTPLIPSSLVATYPFNNESPIVTLIKRYQSAASLSDFESSAKSWVETYSKALLGLVIPLVTKYGIALEAHLQNAIATFRKDGLLDTMYIRDFEGLRIDKAQLNEMGYSTSHFHEKSRILTDSKTSVFNKAFYSTVQNHLGELILTISKASNDSNLERHMWYIVRDVLDNIFDQLVLSTHKSNQVNENRINEIKDTMFAPFIDYKCVTTMRLEDEAHHYTYIKVNNPLYRENNEGHHHHHH” here?
**A.** Its value is “soluble”.

**Q.** For “MSLNLVSEQLLAANGLKHQDLFAILGQLAERRLDYGDLYFQSSYHESWVLEDRIIKDGSYNIDQGVGVRAISGEKTGFAYADQISLLALEQSAQAARTIVRDSGDGKVQTLGAVEHSPLYTSVDPLQSMSREEKLDILRRVDKVAREADKRVQEVTASLSGVYELILVAATDGTLAADVRPLVRLSVSVLVEEDGKRERGASGGGGRFGYEFFLADLDGEVRADAWAKEAVRMALVNLSAVAAPAGTMPVVLGAGWPGVLLHEAVGHGLEGDFNRRGTSVFSGQVGELVASELCTVVDDGTMVDRRGSVAIDDEGTPGQYNVLIENGILKGYMQDKLNARLMGMTPTGNGRRESYAHLPMPRMTNTYMLPGKSTPQEIIESVEYGIYAPNFGGGQVDITSGKFVFSTSEAYLIENGKVTKPVKGATLIGSGIETMQQISMVGNDLKLDNGVGVCGKEGQSLPVGVGQPTLKVDNLTVGGTA”, which “soluble on expression in E. coli” value is on record?
**A.** The value was “soluble”.

**Q.** Which “soluble on expression in E. coli” value does the source give for “MSLNMFWFLPTHGDGHYLGTEEGSRPVDHGYLQQIAQAADRLGYTGVLIPTGRSCEDAWLVAASMIPVTQRLKFLVALRPSVTSPTVAARQAATLDRLSNGRALFNLVTGSDPQELAGDGVFLDHSERYEASAEFTQVWRRLLQRETVDFNGKHIHVRGAKLLFPAIQQPYPPLYFGGSSDVAQELAAEQVDLYLTWGEPPELVKEKIEQVRAKAAAHGRKIRFGIRLHVIVRETNDEAWQAAERLISHLDDETIAKAQAAFARTDSVGQQRMAALHNGKRDNLEISPNLWAGVGLVRGGAGTALVGDGPTVAARINEYAALGIDSFVLSGYPHLEEAYRVGELLFPLLDVAIPEIPQPQPLNPQGEAVANDFIPRKVAQS” here?
**A.** Its value is “soluble”.

**Q.** With “MSLNNKVLVTGGTGFVGMRIISRLLEQGYEVQTTIRDLSKADKVIKTMQDNGISTERLMFVEADLSQDEHWDEAMKDCKYVLSVASPVFFGKTDDAEVMAKPAIEGIQRILRAAEHAGVKRVVMTANFGAVGFSNKDKNSITNESHWTNEDEPGLSVYEKSKLLAEKAAWDFVENENTIVEFATINPVAIFGPSLDAHVSGSFHLLENLLNGSMKRVPQIPLNVVDVRDVAELHILAMTNEQANGKRFIATADGQINLLEIAKLIKEKRPEIAQKVSTKKLPDFILSLGAKFNHQAKEGKLLLDMNRNVSNERAKTLLGWEPIATQEEAILAAIDSMAKFHLIEGHHHHHH” as the sequence, how does the “soluble on expression in E. coli” value read?
**A.** The value was “soluble”.
